# According to publication PMC4468133:
# Target: HIV-1 integrase (HIV-1)
substance,measurement,value
lens-epithelium derived growth factor (LEDGF/p75) (from UniProt O75475 1-530) (natural protein),"LEDGF/p75-dependent activation of in vitro integration into PN (polynucleosome) templates, IN-LEDGF/p75 preformed complex against IN alone (radiolabelled donor, average of four templates)",5 fold
